In patent US20150147270A1:

What was measured:
[1] = target: mouse F4/80 receptor expressed on macrophages (RAW 264.7 cells) (mouse) (UniProt Q61549); test: SPR (BI-2000), Fab'-covered NPs on a carboxydextran gold chip, RAW 264.7 cells injected at 5k cells/mL
[2] = target: mouse F4/80 receptor expressed on macrophages (RAW 264.7 cells) (mouse) (UniProt Q61549); test: cell-based or functional assay
[3] = target: mouse F4/80 receptor expressed on macrophages (RAW 264.7 cells) (mouse) (UniProt Q61549); test: SPR (BI-2000), Fab'-covered NPs on a carboxydextran gold chip, RAW 264.7 cells injected at 7.5k cells/mL
[4] = target: mouse F4/80 receptor expressed on macrophages (RAW 264.7 cells) (mouse) (UniProt Q61549); test: SPR (BI-2000), Fab'-covered NPs on a carboxydextran gold chip, RAW 264.7 cells injected at 2.5k cells/mL
[5] = target: mouse F4/80 receptor expressed on macrophages (RAW 264.7 cells) (mouse) (UniProt Q61549); test: SPR (BI-2000), Fab'-covered NPs on a carboxydextran gold chip, RAW 264.7 cells injected at 10k cells/mL
[6] = target: mouse F4/80 receptor expressed on macrophages (RAW 264.7 cells) (mouse) (UniProt Q61549); test: SPR, antibody-covered NPs coated on a gold chip, Raw 264.7 cells injected

Chain of UniProt Q61549 (Q61549 28-931): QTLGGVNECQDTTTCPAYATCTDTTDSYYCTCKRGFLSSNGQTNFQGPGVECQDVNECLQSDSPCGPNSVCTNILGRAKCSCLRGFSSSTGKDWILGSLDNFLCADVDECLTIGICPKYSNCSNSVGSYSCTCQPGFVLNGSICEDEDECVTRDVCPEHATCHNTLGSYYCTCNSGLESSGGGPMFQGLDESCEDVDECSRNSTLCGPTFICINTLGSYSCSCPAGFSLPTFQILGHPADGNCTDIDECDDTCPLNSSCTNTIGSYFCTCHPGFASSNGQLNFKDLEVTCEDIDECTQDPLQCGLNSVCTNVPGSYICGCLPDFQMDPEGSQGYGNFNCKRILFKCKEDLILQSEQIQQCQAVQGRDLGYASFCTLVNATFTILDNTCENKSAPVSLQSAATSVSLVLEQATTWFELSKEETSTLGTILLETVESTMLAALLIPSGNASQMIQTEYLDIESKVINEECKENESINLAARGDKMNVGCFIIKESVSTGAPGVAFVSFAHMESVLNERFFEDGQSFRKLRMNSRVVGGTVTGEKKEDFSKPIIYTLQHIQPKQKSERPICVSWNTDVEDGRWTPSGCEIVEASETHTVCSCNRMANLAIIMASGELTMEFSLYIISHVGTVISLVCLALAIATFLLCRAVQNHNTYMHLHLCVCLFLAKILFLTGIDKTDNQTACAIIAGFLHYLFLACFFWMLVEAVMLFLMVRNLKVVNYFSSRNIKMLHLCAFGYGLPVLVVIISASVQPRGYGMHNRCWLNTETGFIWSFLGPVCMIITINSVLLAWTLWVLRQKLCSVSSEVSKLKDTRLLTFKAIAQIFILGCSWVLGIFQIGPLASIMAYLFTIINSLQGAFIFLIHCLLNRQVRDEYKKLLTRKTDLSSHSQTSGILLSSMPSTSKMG

Substance | resonance angle deviation [1] [mDeg] | average fluorescent intensity per unit of surface area of RAW 264.7 cells exposed to NPs loaded with FITC-tagged siRNA (15 minutes, 500 ug/mL); non-coated NPs gave 10279 AU/um^2 [2] [AU/µm^2] | percent of colonic MPs (CD11c(-)CD11b(+)F4/80(+)) with positive FITC signals by flow cytometry after gavage of DSS-treated mice with NPs loaded with FITC-tagged siRNA; non-coated NPs gave 19% [2] [%] | resonance angle deviation [3] [mDeg] | resonance angle deviation [4] [mDeg] | resonance angle deviation [5] [mDeg] | binding coefficient [6]
Fab' fragment of the F4/80 antibody covalently attached to PLA-PEG nanoparticles | 17 | 51300 | 28 | 33 | 13 | 42 | –
mouse F4/80 antibody grafted onto maleimide-polyethyleneglycol-poly(lactic acid) nanoparticles | – | – | – | – | – | – | 50
